Consider 3 molecules from patent EP3265123B1 (Kymab Limited, dated 2022).

Assay [1] concerns the target T1, Recombinant Human OX40L (Leader sequence, Isoleucine Zipper and FLAG Sequence Included) (human).
T1 construct: In-house construct: extracellular domain of human OX40L with a FLAG motif and an isoleucine zipper to aid trimerisation; It was used biotinylated in the HTRF assays and unlabelled in SPR and the T-cell assay; also called hOX40L; biotinylated OX40L
Nature of the assay: SPR (ProteOn XPR36), antibody captured on anti-mouse IgG, OX40L at 256 nM, 1:1 model, apparent affinity, 25 C.

Assay [2] deals with T1, Recombinant Human OX40L (Leader …). In words: HTRF ligand/receptor neutralisation, biotinylated hOX40L with OX40RFc-AF647 as competitor; mean of three experiments. Background: TR-FRET usually uses a lanthanide donor and a delayed reading to cut background.
The target is the same in assay [3]. Nature of the assay: cell-based or functional assay.

T1 sequence (chain, as listed by the source limits assumed): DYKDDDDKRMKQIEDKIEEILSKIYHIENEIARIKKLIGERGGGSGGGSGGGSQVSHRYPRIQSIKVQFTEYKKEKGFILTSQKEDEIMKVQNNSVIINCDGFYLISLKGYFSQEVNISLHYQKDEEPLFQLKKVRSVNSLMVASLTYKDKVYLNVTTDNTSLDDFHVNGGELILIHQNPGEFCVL

B1: 9H04 (hybridoma) (antibody, V domains shown)
VH: QVQLVESGGGLVKPGGSLRLSCAASRFTLSDYYMTWIRQAPGKGLEWVSYISSSGNTIYYADSVKGRFTISRDNAKNSLYLQMNSLRAEDTAVYYCARDLSGSYWDYYYGMDVWGQGTTVTVSS
VL: AIQLTQSPSSLSTSVGDRVTIACRASQGINNALAWYQQKPGKAPKLLIYDASSLESGVPSRFSGSGSGTDFTLTISSLQPEDFATYYCQQFNSYPRTFGQGTKVEIK
notes: Purified from hybridoma supernatant as a murine/human chimeric antibody (human variable domains, mouse constant regions); also called 09H04
In the case of B1, the Kd in assay [1] was found to be 5.3 nM.

B2: 2D10 (human) (antibody, human IgG4 S228P, kappa, V domains shown)
VH: EVQLVESGGGLVQPGGSLRLSCAASGFTFSNYAMNWVRQAPGKGLEWVSTISGSGGATRYADSVKGRFTISRDNSRNTVYLQMNSLRVEDTAVFYCTKDRLIMATVRGPYYYGMDVWGQGTTVTVSS
VL: DIQMTQSPSSLSASVGDRVTITCRASQSISSYLNWYQQKPGKAPNLLIYAASSLQSGVPSRFSGSGSETDFTLTISSLQPEDFATYYCQQSHSVSFTFGPGTKVDIKR
notes: Fully human recombinant IgG4-PE (Ser228Pro, Leu235Glu) with human kappa light chain, expressed in CHO-S; also called 02D10; 2D10 IgG4PE
Take B2: the IC50 (commonly the concentration needed to halve the response being measured) in assay [2] is 0.75 nM. The “Primary T-cell Assay IC50 (recombinant OX40L induced IL2 release from primary human T-cells)” value in assay [3] was 0.81 nM.

B3: 19H01 (hybridoma) (antibody, V domains shown)
VH: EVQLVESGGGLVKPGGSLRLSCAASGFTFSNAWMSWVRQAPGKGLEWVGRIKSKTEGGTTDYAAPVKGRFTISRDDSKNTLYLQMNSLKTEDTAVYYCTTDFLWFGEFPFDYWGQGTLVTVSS
VL: DIQMTQSPSSLSASVGDRVTITCRASQGISNYLAWYQQKPGKIPKLLIYAASTLQSGVPSRFSGSGSGTDFTLTISSLQPEDVATYYCQKYNSAPRTFGQGTKVEIK
notes: Purified from hybridoma supernatant as a murine/human chimeric antibody (human variable domains, mouse constant regions)
For B3, in assay [1], the Kd worked out at 2.2 nM.
